In the data set the test system is GST-MBNL1 (GST-MBNL1Δ101 in Methods). The data set is described as follows: EMSA. Particulars: EMSA: 0.75 mM MgCl2, 50 mM Tris-HCl pH 7.0, 75 mM NaCl, 37.5 mM KCl, 5.25 mM DTT, 0.1 mg/ml BSA, 0.1 mg/ml bulk tRNA, RNasin 0.4 U/ul; 20 min on ice, gel at …. On the technique in general: In EMSA bound probe runs differently from free probe, usually more slowly.

The sequence CUG 10x RNA gave an IC50 of 100 nM. This counts as sub-micromolar.

A word on the IC50: it is the concentration at which inhibition is half-maximal.

These data come from paper PMC5963859.
